Experimental data published in US20260092124A1 (published 2026).

Target: human CD40 (human, UniProt P25942 21-277)
Assay: cell binding (GpL luciferase, HT1080-CD40); single representative experiment

Chain of human CD40 (P25942 21-277): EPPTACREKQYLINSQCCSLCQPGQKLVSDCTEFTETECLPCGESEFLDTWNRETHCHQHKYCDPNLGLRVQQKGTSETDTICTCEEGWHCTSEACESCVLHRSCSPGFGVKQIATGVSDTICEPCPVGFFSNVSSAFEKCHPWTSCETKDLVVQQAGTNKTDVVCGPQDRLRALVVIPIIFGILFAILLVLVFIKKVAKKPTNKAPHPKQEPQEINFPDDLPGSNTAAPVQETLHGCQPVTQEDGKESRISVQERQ

Kd: 0.14 µg/mL
B1: GpL-CD40L, a fusion protein of soluble CD40L and Gaussia princeps luciferase (GpL) (ligand)
chain: GDQNPQIAAHVISEASSKTTSVLQWAEKGYYTMSNNLVTLENGKQLTVKRQGLYYIYAQVTFCSNREASSQAPFIASLCLKSPGRFERILLRAANTHSSAKPCGQQSIHLGGVFELQPGASVFVNVTDPSQVSHGTGFTSFGLLKL
